The values that follow come from PMC3605031, “Mitogen-Activated Protein Kinase p38b Interaction with Delta Class Glutathione Transferases from the Fruit Fly, Drosophila melanogaster” (Journal of Insect Science, 2012).

Where two headings read alike, the source gives them in different places.

In assay [1] the target is Drosophila melanogaster p38b mitogen-activated protein kinase (D. melanogaster) (UniProt O61443).
For assay [2] the target is unchanged. The source holds these as a separate data set.
Assay [3] has the same target. The source holds these as a separate data set.

Chain of UniProt O61443 (O61443 whole entry): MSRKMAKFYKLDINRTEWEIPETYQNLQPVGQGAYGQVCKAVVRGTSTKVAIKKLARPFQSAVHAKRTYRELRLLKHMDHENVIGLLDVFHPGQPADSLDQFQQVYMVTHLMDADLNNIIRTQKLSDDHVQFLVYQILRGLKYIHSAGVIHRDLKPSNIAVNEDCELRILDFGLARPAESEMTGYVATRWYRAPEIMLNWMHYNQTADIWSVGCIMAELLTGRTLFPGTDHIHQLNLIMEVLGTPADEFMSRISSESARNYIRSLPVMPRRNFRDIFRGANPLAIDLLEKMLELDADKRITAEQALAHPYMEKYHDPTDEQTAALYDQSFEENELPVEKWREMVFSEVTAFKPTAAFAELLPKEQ

Turning to “Drosophila melanogaster Delta class glutathione transferase DmGSTD11b (enzyme)”, in assay [1], the fold change of p38b kinase activity toward ATF2 with GST at 1:1 molar ratio (ADP Quest assay) stood at 7.1 fold and the fold change of p38b kinase activity toward jun with GST at 1:1 molar ratio (ADP Quest assay) is 10 fold.

B1: Drosophila melanogaster Delta class glutathione transferase DmGSTD3 (enzyme)
chain: MVGKALGLEFNKKIINTLKGEQMNPDFIKINPQHSIPTLVDNGFTIWESRAILVYLVEKYGKDDALYPKDIQKQAVINQRLYFDMALMYPTLANYYYKAFTTGQFGSEEDYKKVQETFDFLNTFLEGQDYVAGDQYTVADIAILANVSNFDVVGFDISKYPNVARWYDHVKKITPGWEENWAGALDVKKRIEEKQNAAK
Consider B1, for which, in assay [1], the fold change of p38b kinase activity toward ATF2 with GST at 1:1 molar ratio (ADP Quest assay) is 1.8 fold and the fold change of p38b kinase activity toward jun with GST at 1:1 molar ratio (ADP Quest assay) stood at 2.6 fold.

B2: Drosophila melanogaster Delta class glutathione transferase DmGSTD2 (enzyme)
chain: MDFYYMPGGGGCRTVIMVAKALGLELNKKLLNTMEGEQLKPEFVKLNPQHTIPTLVDNGFSIWESRAIAVYLVEKYGKDDYLLPNDPKKRAVINQRLYFDMGTLYESFAKYYYPLFRTGKPGSDEDLKRIETAFGFLDTFLEGQEYVAGDQLTVADIAILSTVSTFEVSEFDFSKYSNVSRWYDNAKKVTPGWDENWEGLMAMKALFDARKLAAK
Take B2: the increase of GST activity toward DCNB after incubation with p38b at 1:1 molar ratio in assay [2] came to 37 % increase. Also, the decrease of GST activity toward CDNB after incubation with p38b at 1:1 molar ratio in assay [3] turned out to be 5 % decrease.

B3: Drosophila melanogaster Delta class glutathione transferase DmGSTD5 (enzyme)
chain: MDFYYSPRGSGCRTVIMVAKALGVKLNMKLLNTLEKDQLKPEFVKLNPQHTIPTLVDNGFSIWESRAIAVYLVEKYGKDDTLFPKDPKKQALVNQRLYFDMGTLYDSFAKYYYPLFHTGKPGSDEDFKKIESSFEYLNIFLEGQNYVAGDHLTVADIAILSTVSTFEIFDFDLNKYPNVARWYANAKKVTPGWEENWKGAVELKGVFDARQAAAKQ
Consider B3, for which, in assay [1], the fold change of p38b kinase activity toward ATF2 with GST at 1:1 molar ratio (ADP Quest assay) came to 1.4 fold and the fold change of p38b kinase activity toward jun with GST at 1:1 molar ratio (ADP Quest assay) was determined as 1.6 fold. Besides, in assay [2], the decrease of GST activity toward CDNB after incubation with p38b at 1:1 molar ratio was found to be 10 % decrease and the decrease of GST activity toward DCNB after incubation with p38b at 1:1 molar ratio turned out to be 40 % decrease. In addition, in assay [3], the decrease of GST activity toward CDNB after incubation with p38b at 1:1 molar ratio, as told in the discussion is 8 % decrease; the decrease of GST activity toward DCNB after incubation with p38b at 1:1 molar ratio, as told in the discussion came to 36 % decrease; the fold change of p38b kinase activity toward jun with GST at 1:1 molar ratio (ADP Quest assay), as told in the discussion was 1.5 fold.

B4: Drosophila melanogaster Delta class glutathione transferase DmGSTD8 (enzyme)
chain: MDFYYHPCSAPCRSVIMTAKALGVDLNMKLLKVMDGEQLKPEFVKLNPQHCIPTLVDDGFSIWESRAILIYLVEKYGADDSLYPSDPQKKAVVNQRLYFDMGTLFQSFVEAIYPQIRNNHPADPEAMQKVDSAFGHLDTFLEDQEYVAGDCLTIADIALLASVSTFEVVDFDIAQYPNVARWYENAKEVTPGWEENWDGVQLIKKLVQERNE
Regarding B4, in assay [1], the fold change of p38b kinase activity toward ATF2 with GST at 1:1 molar ratio (ADP Quest assay) came to 6.5 fold and the fold change of p38b kinase activity toward jun with GST at 1:1 molar ratio (ADP Quest assay) turned out to be 8.1 fold. The increase of GST activity toward DCNB after incubation with p38b at 1:1 molar ratio in assay [2] was determined as 30 % increase.

B5: Drosophila melanogaster Delta class glutathione transferase DmGSTD7 (enzyme)
chain: MPNLDLYNFPMAPASRAIQMVAKALGLELNSKLINTMEGDQLKPEFVRINPQHTIPTLVDNGFVIWESRAIAVYLVEKYGKPDSPLYPNDPQKRALINQRLYFDMGTLYDALTKYFFLIFRTGKFGDQEALDKVNSAFGFLNTFLEGQDFVAGSQLTVADIVILATVSTVEWFSFDLSKFPNVERWLKNAPKVTPGWEQNLESLQQGKKFLQDLQAAKEKEVKA
Turning to B5, the increase of GST activity toward DCNB after incubation with p38b at 1:1 molar ratio in assay [2] came to 10 % increase.
